Measured values from paper PMC10786891, “Massively parallel profiling of RNA-targeting CRISPR-Cas13d”.

T1: EsCas13d, nuclease-dead (Eubacterium siraeum, UniProt B0MS50, R295A;H300A;R849A;H854A)
T1 sequence: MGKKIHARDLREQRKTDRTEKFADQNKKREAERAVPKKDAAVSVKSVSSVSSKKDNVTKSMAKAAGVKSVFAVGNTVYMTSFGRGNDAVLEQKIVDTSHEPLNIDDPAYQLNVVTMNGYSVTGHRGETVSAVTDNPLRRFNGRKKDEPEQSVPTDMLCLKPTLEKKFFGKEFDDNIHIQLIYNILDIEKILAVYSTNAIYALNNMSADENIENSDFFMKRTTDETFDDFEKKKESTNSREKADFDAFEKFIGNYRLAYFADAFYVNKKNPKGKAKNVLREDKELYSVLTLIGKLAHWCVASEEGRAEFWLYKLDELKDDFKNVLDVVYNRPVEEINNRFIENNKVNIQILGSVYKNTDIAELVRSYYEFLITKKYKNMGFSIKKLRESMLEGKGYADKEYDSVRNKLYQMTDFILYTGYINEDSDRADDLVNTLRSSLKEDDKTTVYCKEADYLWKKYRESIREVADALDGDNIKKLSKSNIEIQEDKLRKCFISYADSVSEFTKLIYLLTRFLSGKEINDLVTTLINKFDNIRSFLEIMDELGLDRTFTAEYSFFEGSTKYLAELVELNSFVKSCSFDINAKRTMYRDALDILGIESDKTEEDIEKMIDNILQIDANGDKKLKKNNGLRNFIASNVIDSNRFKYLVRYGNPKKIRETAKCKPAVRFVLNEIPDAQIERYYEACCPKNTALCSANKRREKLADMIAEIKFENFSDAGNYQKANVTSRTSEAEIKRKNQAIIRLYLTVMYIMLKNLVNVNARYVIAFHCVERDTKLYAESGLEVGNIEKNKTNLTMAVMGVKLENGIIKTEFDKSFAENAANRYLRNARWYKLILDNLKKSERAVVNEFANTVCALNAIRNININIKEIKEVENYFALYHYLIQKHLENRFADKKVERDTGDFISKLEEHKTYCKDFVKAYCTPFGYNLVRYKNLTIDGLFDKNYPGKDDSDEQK


The binders below were run against T1, EsCas13d, nuclease-dead (assay: crRNA (strand 1, pre-loaded); Mg2+; 40 mM Tris-HCl pH 7.5, 150 mM NaCl, 6 mM MgCl2, 1 mM DTT, 0.1% Tween-20, 0.2 mg/ml BSA; 25 C; 10 min per concentration, then washed). Conditions: tags: His6-TwinStrep-SUMO cleaved; N-terminal SNAP kept (SNAP-Surface 488); label: 3' end held by stalled T7 RNA polymerase.

Row | Binder | Kd [nM]
1 | target 1 del9,del19 (mixed) RNA 1: CACCCGUGCAAAAAUGCAGGGGUCUAAAACUGAGCGGAUAACCUCUCUAUGG RNA 2: GGGAAUGGAUCCACAUCUACGAAUUCGUACCAAGAGAGGUUUCCGCUCACCGAGAUCGGAAGAGCACACGU | 86 ± 33
2 | target 1 C7A,U11A (mixed) RNA 1: CACCCGUGCAAAAAUGCAGGGGUCUAAAACUGAGCGGAUAACCUCUCUAUGG RNA 2: GGGAAUGGAUCCACAUCUACGAAUUCGUACCAUAGAGAGGAUAUACGCUCACCGAGAUCGGAAGAGCACACGU | 17.9 ± 1.3
3 | target 1 insC 3' of 13,insC 3' of 12 (mixed) RNA 1: CACCCGUGCAAAAAUGCAGGGGUCUAAAACUGAGCGGAUAACCUCUCUAUGG RNA 2: GGGAAUGGAUCCACAUCUACGAAUUCGUACCAUAGAGAGCGCUUAUCCGCUCACCGAGAUCGGAAGAGCACACGU | 17.7 ± 1.2
4 | target 1 insG 3' of 4,insU 3' of 4 (mixed) RNA 1: CACCCGUGCAAAAAUGCAGGGGUCUAAAACUGAGCGGAUAACCUCUCUAUGG RNA 2: GGGAAUGGAUCCACAUCUACGAAUUCGUACCAUAGAGAGGUUAUCCGCGUUCACCGAGAUCGGAAGAGCACACGU | 7 ± 0.4
5 | target 1 A14C,G15U (mixed) RNA 1: CACCCGUGCAAAAAUGCAGGGGUCUAAAACUGAGCGGAUAACCUCUCUAUGG RNA 2: GGGAAUGGAUCCACAUCUACGAAUUCGUACCAUAGAUCGGUUAUCCGCUCACCGAGAUCGGAAGAGCACACGU | 35 ± 6
6 | target 1 insG 3' of 19,insG 3' of 14 (mixed) RNA 1: CACCCGUGCAAAAAUGCAGGGGUCUAAAACUGAGCGGAUAACCUCUCUAUGG RNA 2: GGGAAUGGAUCCACAUCUACGAAUUCGUACCAUGAGAGAGGGUUAUCCGCUCACCGAGAUCGGAAGAGCACACGU | 75 ± 16
7 | target 1 insU 3' of 18,insU 3' of 15 (mixed) RNA 1: CACCCGUGCAAAAAUGCAGGGGUCUAAAACUGAGCGGAUAACCUCUCUAUGG RNA 2: GGGAAUGGAUCCACAUCUACGAAUUCGUACCAUAUGAGUAGGUUAUCCGCUCACCGAGAUCGGAAGAGCACACGU | 50 ± 12
8 | target 1 complement block 3-8 (mixed) RNA 1: CACCCGUGCAAAAAUGCAGGGGUCUAAAACUGAGCGGAUAACCUCUCUAUGG RNA 2: GGGAAUGGAUCCACAUCUACGAAUUCGUACCAUAGAGAGGUUAAGGCGACACCGAGAUCGGAAGAGCACACGU | 9.9 ± 0.4
9 | target 1 insU 3' of 22,insG 3' of 20 (mixed) RNA 1: CACCCGUGCAAAAAUGCAGGGGUCUAAAACUGAGCGGAUAACCUCUCUAUGG RNA 2: GGGAAUGGAUCCACAUCUACGAAUUCGUACUCAGUAGAGAGGUUAUCCGCUCACCGAGAUCGGAAGAGCACACGU | 78 ± 24
10 | target 1 U10G,A20U (mixed) RNA 1: CACCCGUGCAAAAAUGCAGGGGUCUAAAACUGAGCGGAUAACCUCUCUAUGG RNA 2: GGGAAUGGAUCCACAUCUACGAAUUCGUACCUUAGAGAGGUGAUCCGCUCACCGAGAUCGGAAGAGCACACGU | 60 ± 18
11 | target 1 C6U,A20C (mixed) RNA 1: CACCCGUGCAAAAAUGCAGGGGUCUAAAACUGAGCGGAUAACCUCUCUAUGG RNA 2: GGGAAUGGAUCCACAUCUACGAAUUCGUACCCUAGAGAGGUUAUCUGCUCACCGAGAUCGGAAGAGCACACGU | 100 ± 50
12 | target 1 G5A,U11C (mixed) RNA 1: CACCCGUGCAAAAAUGCAGGGGUCUAAAACUGAGCGGAUAACCUCUCUAUGG RNA 2: GGGAAUGGAUCCACAUCUACGAAUUCGUACCAUAGAGAGGCUAUCCACUCACCGAGAUCGGAAGAGCACACGU | 34 ± 4
13 | target 1 insU 3' of 21,insC 3' of 15 (mixed) RNA 1: CACCCGUGCAAAAAUGCAGGGGUCUAAAACUGAGCGGAUAACCUCUCUAUGG RNA 2: GGGAAUGGAUCCACAUCUACGAAUUCGUACCUAUAGAGCAGGUUAUCCGCUCACCGAGAUCGGAAGAGCACACGU | 55 ± 7
14 | target 1 insU 3' of 14,insG 3' of 7 (mixed) RNA 1: CACCCGUGCAAAAAUGCAGGGGUCUAAAACUGAGCGGAUAACCUCUCUAUGG RNA 2: GGGAAUGGAUCCACAUCUACGAAUUCGUACCAUAGAGAUGGUUAUCGCGCUCACCGAGAUCGGAAGAGCACACGU | 29.3 ± 1.7
15 | target 1 insA 3' of 19,insC 3' of 12 (mixed) RNA 1: CACCCGUGCAAAAAUGCAGGGGUCUAAAACUGAGCGGAUAACCUCUCUAUGG RNA 2: GGGAAUGGAUCCACAUCUACGAAUUCGUACCAUAAGAGAGGCUUAUCCGCUCACCGAGAUCGGAAGAGCACACGU | 70 ± 31
16 | target 1 G12U,G17U (mixed) RNA 1: CACCCGUGCAAAAAUGCAGGGGUCUAAAACUGAGCGGAUAACCUCUCUAUGG RNA 2: GGGAAUGGAUCCACAUCUACGAAUUCGUACCAUAUAGAGUUUAUCCGCUCACCGAGAUCGGAAGAGCACACGU | 31.3 ± 3.5
17 | target 1 U8G,A18G (mixed) RNA 1: CACCCGUGCAAAAAUGCAGGGGUCUAAAACUGAGCGGAUAACCUCUCUAUGG RNA 2: GGGAAUGGAUCCACAUCUACGAAUUCGUACCAUGGAGAGGUUAGCCGCUCACCGAGAUCGGAAGAGCACACGU | 66 ± 21
18 | target 1 G5C,G12U (mixed) RNA 1: CACCCGUGCAAAAAUGCAGGGGUCUAAAACUGAGCGGAUAACCUCUCUAUGG RNA 2: GGGAAUGGAUCCACAUCUACGAAUUCGUACCAUAGAGAGUUUAUCCCCUCACCGAGAUCGGAAGAGCACACGU | 8.7 ± 0.6
19 | target 1 U10G,C21U (mixed) RNA 1: CACCCGUGCAAAAAUGCAGGGGUCUAAAACUGAGCGGAUAACCUCUCUAUGG RNA 2: GGGAAUGGAUCCACAUCUACGAAUUCGUACUAUAGAGAGGUGAUCCGCUCACCGAGAUCGGAAGAGCACACGU | 11.7 ± 0.8
20 | target 1 G15A,A18C (mixed) RNA 1: CACCCGUGCAAAAAUGCAGGGGUCUAAAACUGAGCGGAUAACCUCUCUAUGG RNA 2: GGGAAUGGAUCCACAUCUACGAAUUCGUACCAUCGAAAGGUUAUCCGCUCACCGAGAUCGGAAGAGCACACGU | 81 ± 15
21 | target 1 G13U,C21U (mixed) RNA 1: CACCCGUGCAAAAAUGCAGGGGUCUAAAACUGAGCGGAUAACCUCUCUAUGG RNA 2: GGGAAUGGAUCCACAUCUACGAAUUCGUACUAUAGAGAUGUUAUCCGCUCACCGAGAUCGGAAGAGCACACGU | 10.5 ± 0.9
22 | target 1 C2U,A14G (mixed) RNA 1: CACCCGUGCAAAAAUGCAGGGGUCUAAAACUGAGCGGAUAACCUCUCUAUGG RNA 2: GGGAAUGGAUCCACAUCUACGAAUUCGUACCAUAGAGGGGUUAUCCGCUUACCGAGAUCGGAAGAGCACACGU | 15 ± 0.7
23 | target 1 insC 3' of 13,insA 3' of 10 (mixed) RNA 1: CACCCGUGCAAAAAUGCAGGGGUCUAAAACUGAGCGGAUAACCUCUCUAUGG RNA 2: GGGAAUGGAUCCACAUCUACGAAUUCGUACCAUAGAGAGCGUUAAUCCGCUCACCGAGAUCGGAAGAGCACACGU | 12.7 ± 0.6
24 | target 1 complement block 3-11 (mixed) RNA 1: CACCCGUGCAAAAAUGCAGGGGUCUAAAACUGAGCGGAUAACCUCUCUAUGG RNA 2: GGGAAUGGAUCCACAUCUACGAAUUCGUACCAUAGAGAGGAAUAGGCGACACCGAGAUCGGAAGAGCACACGU | 13 ± 0.6
25 | target 1 insA 3' of 15,insC 3' of 9 (mixed) RNA 1: CACCCGUGCAAAAAUGCAGGGGUCUAAAACUGAGCGGAUAACCUCUCUAUGG RNA 2: GGGAAUGGAUCCACAUCUACGAAUUCGUACCAUAGAGAAGGUUACUCCGCUCACCGAGAUCGGAAGAGCACACGU | 9 ± 0.9
26 | target 1 insG 3' of 19,insA 3' of 8 (mixed) RNA 1: CACCCGUGCAAAAAUGCAGGGGUCUAAAACUGAGCGGAUAACCUCUCUAUGG RNA 2: GGGAAUGGAUCCACAUCUACGAAUUCGUACCAUGAGAGAGGUUAUACCGCUCACCGAGAUCGGAAGAGCACACGU | 57 ± 7
27 | target 1 U3A,U11A (mixed) RNA 1: CACCCGUGCAAAAAUGCAGGGGUCUAAAACUGAGCGGAUAACCUCUCUAUGG RNA 2: GGGAAUGGAUCCACAUCUACGAAUUCGUACCAUAGAGAGGAUAUCCGCACACCGAGAUCGGAAGAGCACACGU | 12.7 ± 0.7
28 | target 1 U3C (mixed) RNA 1: CACCCGUGCAAAAAUGCAGGGGUCUAAAACUGAGCGGAUAACCUCUCUAUGG RNA 2: GGGAAUGGAUCCACAUCUACGAAUUCGUACCAUAGAGAGGUUAUCCGCCCACCGAGAUCGGAAGAGCACACGU | 26.3 ± 3.2
